According to patent US20210032299A1 (Eli Lilly, published 2021):
Starred links: 1 amine or outer side, 2 acyl side, 3 side chain; linkers in the order of their positions; H or OH if unused. Non-standard residues stand in square brackets, D forms with d. Groups on a side chain read outwards from the residue. No end group written: not given here. *: point of attachment. C20 diacid = O=C(O)CCCCCCCCCCCCCCCCCCC(=O)*; γGlu = O=C(O)[C@H](CCC(=O)[*:2])N[*:1]; αMeL = CC(C)C[C@](C)(N)C(=O)O; AEEA = NCCOCCOCC(=O)O; Aib = CC(C)(N)C(=O)O

B1: Example 66 (peptide)
peptide: Y[Aib]EGTFISDYSI[αMeL]LDKK([AEEA-AEEA-γGlu-C20 diacid])HQ[Aib]DFVEYLLETGPSSGAPPPS-NH2
modifications: N-terminus assumed
SMILES: CC[C@H](C)[C@H](NC(=O)[C@H](Cc1ccccc1)NC(=O)[C@@H](NC(=O)CNC(=O)[C@H](CCC(=O)O)NC(=O)C(C)(C)NC(=O)[C@@H](N)Cc1ccc(O)cc1)[C@@H](C)O)C(=O)N[C@@H](CO)C(=O)N[C@@H](CC(=O)O)C(=O)N[C@@H](Cc1ccc(O)cc1)C(=O)N[C@@H](CO)C(=O)N[C@H](C(=O)N[C@@](C)(CC(C)C)C(=O)N[C@@H](CC(C)C)C(=O)N[C@@H](CC(=O)O)C(=O)N[C@@H](CCCCN)C(=O)N[C@@H](CCCCNC(=O)COCCOCCNC(=O)COCCOCCNC(=O)CC[C@H](NC(=O)CCCCCCCCCCCCCCCCCCC(=O)O)C(=O)O)C(=O)N[C@@H](Cc1c[nH]cn1)C(=O)N[C@@H](CCC(N)=O)C(=O)NC(C)(C)C(=O)N[C@@H](CC(=O)O)C(=O)N[C@@H](Cc1ccccc1)C(=O)N[C@H](C(=O)N[C@@H](CCC(=O)O)C(=O)N[C@@H](Cc1ccc(O)cc1)C(=O)N[C@@H](CC(C)C)C(=O)N[C@@H](CC(C)C)C(=O)N[C@@H](CCC(=O)O)C(=O)N[C@H](C(=O)NCC(=O)N1CCC[C@H]1C(=O)N[C@@H](CO)C(=O)N[C@@H](CO)C(=O)NCC(=O)N[C@@H](C)C(=O)N1CCC[C@H]1C(=O)N1CCC[C@H]1C(=O)N1CCC[C@H]1C(=O)N[C@@H](CO)C(N)=O)[C@@H](C)O)C(C)C)[C@@H](C)CC
B2: Example 67 (peptide)
peptide: Y[Aib]EGTFISDYSI[αMeL]LDKK([AEEA-AEEA-γGlu-C20 diacid])HQ[Aib]DFVEYLLEQGPSSGAPPPS-NH2
modifications: N-terminus assumed
SMILES: CC[C@H](C)[C@H](NC(=O)[C@H](Cc1ccccc1)NC(=O)[C@@H](NC(=O)CNC(=O)[C@H](CCC(=O)O)NC(=O)C(C)(C)NC(=O)[C@@H](N)Cc1ccc(O)cc1)[C@@H](C)O)C(=O)N[C@@H](CO)C(=O)N[C@@H](CC(=O)O)C(=O)N[C@@H](Cc1ccc(O)cc1)C(=O)N[C@@H](CO)C(=O)N[C@H](C(=O)N[C@@](C)(CC(C)C)C(=O)N[C@@H](CC(C)C)C(=O)N[C@@H](CC(=O)O)C(=O)N[C@@H](CCCCN)C(=O)N[C@@H](CCCCNC(=O)COCCOCCNC(=O)COCCOCCNC(=O)CC[C@H](NC(=O)CCCCCCCCCCCCCCCCCCC(=O)O)C(=O)O)C(=O)N[C@@H](Cc1c[nH]cn1)C(=O)N[C@@H](CCC(N)=O)C(=O)NC(C)(C)C(=O)N[C@@H](CC(=O)O)C(=O)N[C@@H](Cc1ccccc1)C(=O)N[C@H](C(=O)N[C@@H](CCC(=O)O)C(=O)N[C@@H](Cc1ccc(O)cc1)C(=O)N[C@@H](CC(C)C)C(=O)N[C@@H](CC(C)C)C(=O)N[C@@H](CCC(=O)O)C(=O)N[C@@H](CCC(N)=O)C(=O)NCC(=O)N1CCC[C@H]1C(=O)N[C@@H](CO)C(=O)N[C@@H](CO)C(=O)NCC(=O)N[C@@H](C)C(=O)N1CCC[C@H]1C(=O)N1CCC[C@H]1C(=O)N1CCC[C@H]1C(=O)N[C@@H](CO)C(N)=O)C(C)C)[C@@H](C)CC

How the values were obtained:
Experiment in all cases: cell-based or functional assay
human glucagon receptor = human glucagon receptor (human, UniProt P47871 26-477)
human GLP-1 receptor = human GLP-1 receptor (human, UniProt P43220 24-463)
[1] = target: T1, human glucose-dependent insulinotropic peptide receptor (human, UniProt P48546 22-466)
T1 sequence (looked up): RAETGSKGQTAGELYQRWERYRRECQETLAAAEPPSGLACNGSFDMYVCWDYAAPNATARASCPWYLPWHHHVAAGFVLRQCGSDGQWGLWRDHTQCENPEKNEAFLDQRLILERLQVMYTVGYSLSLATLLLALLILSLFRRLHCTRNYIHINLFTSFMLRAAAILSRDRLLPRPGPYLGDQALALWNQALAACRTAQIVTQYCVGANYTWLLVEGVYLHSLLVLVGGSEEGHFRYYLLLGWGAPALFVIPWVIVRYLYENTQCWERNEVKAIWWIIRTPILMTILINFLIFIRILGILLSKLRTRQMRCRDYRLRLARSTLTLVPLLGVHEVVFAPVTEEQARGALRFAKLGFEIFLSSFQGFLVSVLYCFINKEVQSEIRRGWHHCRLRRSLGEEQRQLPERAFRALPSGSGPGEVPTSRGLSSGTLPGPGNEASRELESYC

Sequence of human glucagon receptor (P47871 26-477): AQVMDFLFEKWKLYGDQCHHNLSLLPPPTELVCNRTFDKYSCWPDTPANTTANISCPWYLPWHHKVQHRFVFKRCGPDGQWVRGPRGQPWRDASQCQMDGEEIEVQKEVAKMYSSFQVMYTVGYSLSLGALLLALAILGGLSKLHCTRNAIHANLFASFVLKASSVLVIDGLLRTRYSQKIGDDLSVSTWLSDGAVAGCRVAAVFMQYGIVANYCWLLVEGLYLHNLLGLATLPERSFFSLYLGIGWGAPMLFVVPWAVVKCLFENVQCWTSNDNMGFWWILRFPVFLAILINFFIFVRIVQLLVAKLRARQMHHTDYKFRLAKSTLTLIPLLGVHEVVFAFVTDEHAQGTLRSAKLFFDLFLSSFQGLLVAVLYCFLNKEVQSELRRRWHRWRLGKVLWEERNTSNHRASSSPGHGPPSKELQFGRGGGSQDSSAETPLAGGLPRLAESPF

Binder | hGcgR cAMP Rel EC50 (human glucagon receptor) | hGLP1R cAMP Rel EC50 (human GLP-1 receptor) | hGIPR cAMP Rel EC50 [1]
B1 | > 5000 nM | > 5000 nM | 0.0786 nM
B2 | > 5000 nM | > 5000 nM | 0.0627 nM
